The record followed here is PMC9352680, “A comprehensive thermodynamic model for RNA binding by the Saccharomyces cerevisiae Pumilio protein PUF4”.

Residue numbers refer to the chain shown, from its start. Names may count otherwise. A value given as a limit tells only on which side of the number the result lay.

For the series, the target named is T1, PUF4 RNA-binding domain (Saccharomyces cerevisiae, UniProt P25339 537-888).
T1 sequence: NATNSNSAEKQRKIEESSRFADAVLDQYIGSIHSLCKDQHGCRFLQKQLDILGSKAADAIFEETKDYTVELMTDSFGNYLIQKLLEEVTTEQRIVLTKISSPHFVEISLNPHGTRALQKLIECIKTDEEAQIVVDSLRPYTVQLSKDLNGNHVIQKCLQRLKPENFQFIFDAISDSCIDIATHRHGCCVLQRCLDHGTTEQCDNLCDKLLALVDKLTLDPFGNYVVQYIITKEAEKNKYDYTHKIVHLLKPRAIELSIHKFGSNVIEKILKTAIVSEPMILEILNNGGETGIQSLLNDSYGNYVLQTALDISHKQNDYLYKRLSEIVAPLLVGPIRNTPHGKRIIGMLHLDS
As to the kind of experiment: Mg; RNA-MaP; 20 mM Na-HEPES pH 7.4, 30 mM KOAc, 0.75 mM MgCl2, 0.1% Tween-20, 5% glycerol, 0.1 mg/mL BSA, 2 mM DTT; 25 C; 0.0125-409.6 nM protein. As to conditions: tags: N-His6-TEV cleaved; C-SNAP kept, Cy3B-labelled; label: tethered on chip by stalled RNA polymerase.

B1: Id_iii_S1_P3E.5_K3.1_C3.3_[C-2T]_H3.1_A3.1_F3.1_T3.2 (ssRNA)
RNA: UCUCUUUUUUGUAUAUAUAUCUCUU
Consider B1, for which the affinity, expressed as Kd, was 0.00624 µM.

B2: Id_iii_S1_P3E.5_K3.1_C3.3_[T-1G]_H3.1_A3.1_F3.1_T3.2 (ssRNA)
RNA: UCUCUUUCGUGUAUAUAUAUCUCUU
In the case of B2, the Kd – broadly, the free concentration of one partner at which half of the binding sites on the other are occupied at equilibrium, for simple one-to-one binding – turned out to be 0.00672 µM.

B3: Id_iii_S1_P3E.5_K3.1_C3.3_H3.1_A3.1_F3.1_T3.2_[A10C] (ssRNA)
RNA: UCUCUUUCUUGUAUAUAUCUCUCUU
In turn, B3 yielded a Kd of 0.00606 µM.

B4: Ie_S1_P3E.2_K3.1_C3.2_[+-2C]_H3.1_A3.1_F3.1_T3.2 (ssRNA)
RNA: UCUCUUCCUUGUAUAUAUAUCUCUU
B4 gave a Kd of 0.00623 µM. The Kd values of the last two molecules are within 1.5-fold of each other.

B5: Id_iii_S1_P3E.5_K3.1_C3.3_[T-3A]_H3.1_A3.1_F3.1_T3.2 (ssRNA)
RNA: UCUCUUACUUGUAUAUAUAUCUCUU
B5 had a Kd of 0.00504 µM. This Kd and that of the molecule before are within 1.5-fold of each other.

B6: Ib_S1_P5E.1_K5.1_C5.1_H5.1_[A4C]_A5.1_[T5C]_F5.1_T5.1 (ssRNA)
RNA: UCUCUUUGUCCUAUUAUCUCUU
Consider B6, for which the Kd worked out at 0.0795 µM.

B7: Id_iii_S1_P3E.5_K3.1_C3.3_[T-1A]_H3.1_A3.1_F3.1_T3.2 (ssRNA)
RNA: UCUCUUUCAUGUAUAUAUAUCUCUU
As for B7, the Kd amounted to 0.0065 µM.

B8: Id_iii_S1_P3E.5_K3.1_C3.3_H3.1_A3.1_F3.1_T3.2_[A10T] (ssRNA)
RNA: UCUCUUUCUUGUAUAUAUUUCUCUU
In the case of B8, the equilibrium dissociation constant (Kd) came out at 0.00604 µM.

B9: Id_ii_S4_P5E.3_K5.2_C5.2_[T-1G]_H5.2_A5.1_F5.1_T5.2_[A12T] (ssRNA)
RNA: UUUGACAACUGAUCGUUCUUUCUCGUAUAUUAUUAUUUUCUUUCUCGAUCAGUUGUCUUU
In turn, B9 came in with a Kd of 0.0156 µM.

B10: Id_ii_S4_P5E.4_K5.3_C5.2_[C-2G]_H5.3_A5.1_F5.1_T5.2_[A12T] (ssRNA)
RNA: B9 RNA with C24G, G25U, U26A, A27C, U28A, A29C
On to B10, for which binding was characterised by a dissociation constant (Kd) of 0.00265 µM.

B11: Id_ii_S4_P5E.4_K5.3_C5.2_[T-1C]_H5.3_A5.1_F5.1_T5.2_[A12G] (ssRNA)
RNA: B9 RNA with G25C, U26A, A27C, U28A, A29C, U37G
In the case of B11, the Kd was greater than 2.3 µM.

B12: Id_ii_S4_P5E.3_K5.2_C5.2_[T-1A]_H5.2_A5.1_F5.1_T5.2_[T11C]_[A12C] (ssRNA)
RNA: B9 RNA with G25A, U36C, U37C
With B12, binding was characterised by a dissociation constant (Kd) of 0.117 µM.

B13: Id_ii_S4_P5E.4_K5.3_C5.2_[C-2G]_H5.3_A5.1_F5.1_T5.2_[A12C] (ssRNA)
RNA: B9 RNA with C24G, G25U, U26A, A27C, U28A, A29C, U37C
In turn, B13 came in with an equilibrium dissociation constant (Kd) of 0.003 µM.

B14: Id_ii_S4_P5E.4_K5.3_C5.2_[C-2T]_[T-1A]_H5.3_A5.1_F5.1_T5.2_[A12C] (ssRNA)
RNA: B9 RNA with C24U, G25A, U26A, A27C, U28A, A29C, U37C
Molecule B14 came in with a Kd greater than 2.3 µM.

B15: Id_ii_S4_P5E.3_K5.2_C5.2_H5.2_A5.1_F5.1_T5.2_[T11C]_[A12G] (ssRNA)
RNA: B9 RNA with G25U, U36C, U37G
B15 returned a Kd of 0.47 µM.

B16: Id_ii_S4_P5E.3_K5.2_C5.2_[T-1A]_H5.2_A5.1_F5.1_T5.2_[T11A]_[A12C] (ssRNA)
RNA: B9 RNA with G25A, U36A, U37C
B16 returned a Kd of 0.143 µM. Compared with the last molecule, the Kd is about 3.3-fold lower.

B17: Id_ii_S4_P5E.3_K5.2_C5.2_H5.2_A5.1_F5.1_T5.2_[T11C]_[A12T] (ssRNA)
RNA: B9 RNA with G25U, U36C
In turn, B17 registered a Kd of 0.0966 µM.

B18: Id_ii_S4_P5E.4_K5.3_C5.2_[T-1C]_H5.3_A5.1_F5.1_T5.2_[T11C]_[A12T] (ssRNA)
RNA: B9 RNA with G25C, U26A, A27C, U28A, A29C, U36C
The molecule B18 showed an equilibrium dissociation constant (Kd) greater than 2.3 µM.

B19: Id_ii_S4_P5E.4_K5.3_C5.2_[T-1G]_H5.3_A5.1_F5.1_T5.2 (ssRNA)
RNA: B9 RNA with U26A, A27C, U28A, A29C, U37A
Molecule B19 yielded a Kd of 1.17 µM. This lies in the single-digit micromolar range.

B20: Id_ii_S4_P5E.3_K5.2_C5.2_H5.2_A5.1_F5.1_T5.2_[A12T] (ssRNA)
RNA: B9 RNA with G25U
For the molecule B20, binding was put at a Kd of 0.168 µM. This Kd is about 7-fold lower than that of the molecule before.

B21: Id_ii_S4_P5E.4_K5.3_C5.2_[C-2A]_[T-1C]_H5.3_A5.1_F5.1_T5.2_[A12G] (ssRNA)
RNA: B9 RNA with C24A, G25C, U26A, A27C, U28A, A29C, U37G
The molecule B21 had a Kd greater than 2.3 µM.

B22: Id_ii_S4_P5E.4_K5.3_C5.2_[C-2A]_[T-1A]_H5.3_A5.1_F5.1_T5.2 (ssRNA)
RNA: B9 RNA with C24A, G25A, U26A, A27C, U28A, A29C, U37A
On to B22, for which the Kd was found to be 0.845 µM.

B23: Id_ii_S4_P5E.4_K5.3_C5.2_H5.3_A5.1_F5.1_T5.2_[T11G]_[A12C] (ssRNA)
RNA: B9 RNA with G25U, U26A, A27C, U28A, A29C, U36G, U37C
The molecule B23 yielded a Kd greater than 2.3 µM.

B24: Id_ii_S4_P5E.4_K5.3_C5.2_[C-2T]_[T-1A]_H5.3_A5.1_F5.1_T5.2 (ssRNA)
RNA: B9 RNA with C24U, G25A, U26A, A27C, U28A, A29C, U37A
In the case of B24, the Kd was 0.893 µM.

B25: Id_ii_S4_P5E.4_K5.3_C5.2_[C-2T]_[T-1C]_H5.3_A5.1_F5.1_T5.2_[A12T] (ssRNA)
RNA: B9 RNA with C24U, G25C, U26A, A27C, U28A, A29C
The molecule B25 showed a Kd greater than 2.3 µM.

B26: Id_ii_S4_P5E.4_K5.3_C5.2_H5.3_A5.1_F5.1_T5.2_[A12T] (ssRNA)
RNA: B9 RNA with G25U, U26A, A27C, U28A, A29C
With B26, the Kd is greater than 2.3 µM.

B27: Id_ii_S4_P5E.3_K5.2_C5.2_[T-1C]_H5.2_A5.1_F5.1_T5.2_[T11C]_[A12T] (ssRNA)
RNA: B9 RNA with G25C, U36C
As to B27, the affinity, expressed as Kd, was 0.0656 µM.

B28: Id_ii_S4_P5E.3_K5.2_C5.2_[T-1A]_H5.2_A5.1_F5.1_T5.2_[T11A]_[A12G] (ssRNA)
RNA: B9 RNA with G25A, U36A, U37G
B28: the Kd was greater than 2.3 µM.

B29: Id_ii_S4_P5E.4_K5.3_C5.2_[C-2T]_H5.3_A5.1_F5.1_T5.2_[A12T] (ssRNA)
RNA: B9 RNA with C24U, G25U, U26A, A27C, U28A, A29C
Take B29: the Kd is greater than 2.3 µM.

B30: Id_ii_S4_P5E.4_K5.3_C5.2_[C-2G]_[T-1C]_H5.3_A5.1_F5.1_T5.2_[T11A]_[A12T] (ssRNA)
RNA: B9 RNA with C24G, G25C, U26A, A27C, U28A, A29C, U36A
Regarding B30, the Kd was 0.559 µM.

B31: Id_ii_S4_P5E.4_K5.3_C5.2_[C-2A]_H5.3_A5.1_F5.1_T5.2_[A12G] (ssRNA)
RNA: B9 RNA with C24A, G25U, U26A, A27C, U28A, A29C, U37G
B31 registered a Kd of 1.53 µM.

B32: Id_ii_S4_P5E.4_K5.3_C5.2_[C-2T]_H5.3_A5.1_F5.1_T5.2_[T11A]_[A12T] (ssRNA)
RNA: B9 RNA with C24U, G25U, U26A, A27C, U28A, A29C, U36A
On to B32, for which the Kd is greater than 2.3 µM.

B33: Id_ii_S4_P5E.4_K5.3_C5.2_[C-2G]_H5.3_A5.1_F5.1_T5.2_[T11A]_[A12T] (ssRNA)
RNA: B9 RNA with C24G, G25U, U26A, A27C, U28A, A29C, U36A
In the case of B33, binding was put at a Kd of 0.00281 µM.

B34: Id_ii_S4_P5E.4_K5.3_C5.2_[C-2A]_H5.3_A5.1_F5.1_T5.2_[A12T] (ssRNA)
RNA: B9 RNA with C24A, G25U, U26A, A27C, U28A, A29C
B34: the Kd is 0.467 µM. This Kd lies about 170-fold higher than the previous one.

B35: Id_ii_S4_P5E.3_K5.2_C5.2_[T-1A]_H5.2_A5.1_F5.1_T5.2_[T11A]_[A12T] (ssRNA)
RNA: B9 RNA with G25A, U36A
For the molecule B35, the affinity, expressed as Kd, was 0.214 µM.

B36: Id_iii_S1_P3E.5_K3.1_C3.3_H3.1_A3.1_F3.1_T3.2_[A10G] (ssRNA)
RNA: UCUCUUUCUUGUAUAUAUGUCUCUU
Regarding B36, the Kd was found to be 0.00751 µM.

B37: Id_iii_S1_P3E.5_K3.1_C3.3_[C-2G]_H3.1_A3.1_F3.1_T3.2 (ssRNA)
RNA: UCUCUUUGUUGUAUAUAUAUCUCUU
B37: the Kd stood at 0.00521 µM.

B38: Id_iii_S1_P3E.5_K3.1_C3.3_[C-2A]_H3.1_A3.1_F3.1_T3.2 (ssRNA)
RNA: UCUCUUUAUUGUAUAUAUAUCUCUU
The molecule B38 returned a Kd of 0.00945 µM.

B39: Ib_S1_P5E.1_K5.1_C5.1_H5.1_[A4T]_A5.1_[T5G]_F5.1_T5.1 (ssRNA)
RNA: UCUCUUUGUUGUAUUAUCUCUU
In the case of B39, the Kd turned out to be 0.0222 µM.

B40: Ia_S1_P5E.1_K5.1_C5.1_H5.1_A5.1_[A7G]_F5.1_T5.1 (ssRNA)
RNA: UCUCUUUGUAUUGUUAUCUCUU
For B40, binding was put at a Kd of 0.0112 µM.

B41: Id_iii_S1_P3E.6_K3.2_C3.3_[T-3G]_H3.2_A3.1_F3.1_T3.2 (ssRNA)
RNA: UCUCUUGCUUAUAUAUAUAUCUCUU
The molecule B41 registered a Kd of 0.38 µM.

B42: Id_iii_S1_P3E.5_K3.1_C3.3_[T-1C]_H3.1_A3.1_F3.1_T3.2 (ssRNA)
RNA: UCUCUUUCCUGUAUAUAUAUCUCUU
B42 displayed a Kd of 0.00414 µM.

B43: Ib_S1_P5E.1_K5.1_C5.1_H5.1_[A4T]_A5.1_[T5C]_F5.1_T5.1 (ssRNA)
RNA: UCUCUUUGUUCUAUUAUCUCUU
B43 had a Kd of 0.0317 µM.
